# Source: patent US20160207996A1 (ARGEN X N V, published 2016)
# B1: 9H4 (antibody, human IgG1, V domains shown)
# VH: EVQLVQPGAELRNPGASVKVSCKASGYIFTSAYIDWVRQAPGQGLEWMGRIDPEDGETRYAHQFRDRVTFTADTSTSTVYAELNSLRSEDTAVYYCAITIEGFWGQGTQVTVSS
# VL: ATMLTQSPGSLSVVPGESASISCKTSRSLVHSDGKTYLSWLLQKPGQSPQRLIYQVSNRGSGVPDRFTGSGSGTDFTLKISGVKAEDAGVYYCAQATYYPLSFGSGTRVEIK
# B2: mAb 6A1 (antibody, IgG1, V domains shown)
# VH: EVQLVESGGGLVQPGGSLRLSCAASGFTFSRNAMTWVRQAPGKGLEWVSAISSTGNSITEADSVKGRFTISRDNAKNMLYLQMNSLKPEDTAVYYCAKLGGDTWYMEYWGQGTQVTVSS
# VL: SYELTQSPSMSVALRQTAKITCGGNNIGSKSAQWYQQKPGQAPVLVIYADNRRPSGIPERFSGSNSGNTATLTISGAQAEDEADYYCQVWDSSANAVFGRGTHLTVLG
# B3: mAb 6A5 (antibody, IgG1, V domains shown)
# VH: EVQLQESGGGSVQPGGSLRLSCAASGFTFSANAMTWVRQAPGKGLEWVSAISGTGASTSYADSVKGRFTVSRDNAKNTLYLQVNNLKPEDTAVYRCAKLGGDTWYMEYWAKGTLVTVSS
# VL: SYELTQSPSVSVALRQTAKITCGGDNIGSKYVNWYQQKPSQTPVLVIYKDSNRPSGIPERFSGSNSGNTAALTISGAQAEDEADYYCQVWDGSAAVFGGGTHLSVLG
# B4: mAb 6B7 (antibody, IgG1, V domains shown)
# VH: QLQLVESGGGLVQPGGSLRLSCAASGFTFSSNAMTWVRQAPGKGLEWVSAISSTGNSITEADSVKGRFTISRDNAKNMLYLQMNSLKPEDTAVYYCAKLGGDTWYMEYWGQGTQVTVSS
# VL: SSALTQPSAVSVSLGQTARITCQGDNFGSIDPHWYQQKPGQDPVVVIYQYNNRPSGIPERFSGLKSGNTATLIISGAQAEDEADYYCQLWDSRAKAVFGGGTHLTVLG
# B5: mAb 6D8 (antibody, IgG1, V domains shown)
# VH: QLQLVESGGGLVQPGGSLRLSCAASGFTFSSNAMTWVRQAPGKGLEWVSAISSTGNSITEADSVKGRFTISRDNAKNMLYLQMNSLKPEDTAVYYCAKLGGDTWYMEYWGQGTQVTVSS
# VL: SYELTQSPSVSVALRQTAKITCGGNGIGSKIVHWYQQKPGQAPVLVIYADVRRPSEIPERFSGSNSGDTATLTVSGAQAEDEADYYCQVWDSSANAAVFGGGTHLTVLG
# Tests used:
# [1] = molecular target: human Nav1.7 (full length) (human) (UniProt Q15858); assay: cell-based or functional assay
# [2] = molecular target: T1, hNav1.7-loopA3-llama Fc fusion (human); assay: binding ELISA on coated loop-llama Fc chimera (20 ng/well), OD620
# T1 construct: also called hNav1.7-loopA3-llFc; loopA3-llamaFc chimera
# T1 chain: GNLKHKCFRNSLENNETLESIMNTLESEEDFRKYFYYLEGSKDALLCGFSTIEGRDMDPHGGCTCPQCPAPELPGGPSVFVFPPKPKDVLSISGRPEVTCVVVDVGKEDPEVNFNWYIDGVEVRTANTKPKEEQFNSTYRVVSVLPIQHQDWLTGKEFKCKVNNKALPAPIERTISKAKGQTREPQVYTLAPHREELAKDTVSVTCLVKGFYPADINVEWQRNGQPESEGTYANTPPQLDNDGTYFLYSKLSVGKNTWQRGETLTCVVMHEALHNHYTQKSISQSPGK
# Description: (§1) For all DNA-immunization derived mAbs the binding affinity for the various hNav1.7-loop-llama Fc chimeras was tested in a binding ELISA. Therefore, a Maxisorp plate (Nunc) was coated with 20 ng/well of hNav1.7-loopA3-llama Fc, hNav1.7-loopB1-C1-D1-llama Fc or hNav1.7-loopC3-llama Fc. Remainder of the ELISA setup is as described above. […] Only at very high concentration minor cross-reactivity is observed for some clones.
# hNav1.7-loopC3-llama Fc = molecular target: T2, hNav1.7-loopC3-llama Fc (human); assay: as above
# T2 construct: whole entry: loop C3, linker, llama Fc; also called hNav1.7-loopC3-llfc
# T2 chain: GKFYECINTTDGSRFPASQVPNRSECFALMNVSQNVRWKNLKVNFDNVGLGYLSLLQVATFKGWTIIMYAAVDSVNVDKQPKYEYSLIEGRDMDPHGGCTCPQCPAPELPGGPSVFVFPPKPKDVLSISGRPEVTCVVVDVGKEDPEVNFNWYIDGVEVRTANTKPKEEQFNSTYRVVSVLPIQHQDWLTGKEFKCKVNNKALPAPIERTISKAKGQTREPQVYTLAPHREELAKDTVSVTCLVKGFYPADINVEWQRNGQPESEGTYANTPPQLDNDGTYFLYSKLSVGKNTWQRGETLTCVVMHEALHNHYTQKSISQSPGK
# Description: as §1
# RatB1-C1-D1-llFc = molecular target: T3, RatB1-C1-D1-llFc (rat); assay: binding ELISA; the panel prints no target, by paragraph 562 the coated rat loop B1-C1-D1-llama Fc
# T3 construct: also called rat Nav1.7 loopB1-C1-D1 llamaFc chimera
# T3 chain: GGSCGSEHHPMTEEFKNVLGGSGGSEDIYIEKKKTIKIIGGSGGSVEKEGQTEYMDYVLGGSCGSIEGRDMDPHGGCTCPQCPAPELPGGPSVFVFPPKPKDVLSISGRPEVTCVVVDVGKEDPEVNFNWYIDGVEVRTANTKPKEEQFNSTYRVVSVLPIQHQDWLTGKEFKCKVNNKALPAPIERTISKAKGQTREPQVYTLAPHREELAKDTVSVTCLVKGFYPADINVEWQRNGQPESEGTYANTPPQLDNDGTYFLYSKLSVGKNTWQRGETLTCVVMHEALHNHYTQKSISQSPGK
# hNav1.5-B1-C1-D1-llFc = molecular target: T4, hNav1.5-B1-C1-D1-llFc (human); assay: binding ELISA; the panel prints no target, by paragraph 288 and paragraph 555 the coated hNav1.5 loop B1-C1-D1-llama Fc
# T4 construct: also called Nav1.5 extracellular loop B1-C1-D1 llamaFc chimera
# T4 chain: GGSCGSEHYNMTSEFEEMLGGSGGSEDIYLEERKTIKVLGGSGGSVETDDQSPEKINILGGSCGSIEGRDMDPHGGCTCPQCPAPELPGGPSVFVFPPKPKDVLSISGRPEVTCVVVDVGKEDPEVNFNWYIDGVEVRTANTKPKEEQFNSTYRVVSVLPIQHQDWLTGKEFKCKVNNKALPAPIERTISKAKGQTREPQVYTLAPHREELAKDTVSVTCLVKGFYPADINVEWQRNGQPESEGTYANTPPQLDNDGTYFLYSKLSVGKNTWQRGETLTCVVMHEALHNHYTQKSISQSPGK
# Excerpt: The therapeutic potency of an anti-hNav1.7 antibody will highly depend on the lack of binding to other Nay family members. Of particular interest is hNav1.5, which is expressed on cardiac muscle cells. As such, cross-reactive binding of hNav1.7 antibodies to hNav1.5 could lead to heart failure. To assay the specificity of the mAbs derived from DNA immunization for hNav1.7, the corresponding loopA3 and loopB1-C1-D1 sequences of hNav1.5 were cloned as llamaFc chimera and cross-reactivity was determined using a binding ELISA (FIG. 8). All clones, except clone 9A6 and 9H4, show no cross-reactivity to hNav1.5. In addition, cross reactivity for hNav1.2 was tested for the loopA3-binding clones 8A7 and 8B6 using hNav1.2 and hNav1.7 derived monomeric, GST-tagged loopA3 peptides (Abnova, H00006326-Q01 (hNav1.2) and H00006335-Q01 (hNav1.7)). Again, no cross-reactive binding was observed.
# [3] = molecular target: T5, hNav1.7-loopB1-C1-D1-llama Fc (human); assay: ELISA, coated loop-B1-C1-D1-llama Fc 20 ng/well, mAb titrated
# T5 construct: whole entry: loops B1, C1, D1 joined by linkers, llama Fc; also called hNav1.7-loopB1-C1-D1-llfc
# T5 chain: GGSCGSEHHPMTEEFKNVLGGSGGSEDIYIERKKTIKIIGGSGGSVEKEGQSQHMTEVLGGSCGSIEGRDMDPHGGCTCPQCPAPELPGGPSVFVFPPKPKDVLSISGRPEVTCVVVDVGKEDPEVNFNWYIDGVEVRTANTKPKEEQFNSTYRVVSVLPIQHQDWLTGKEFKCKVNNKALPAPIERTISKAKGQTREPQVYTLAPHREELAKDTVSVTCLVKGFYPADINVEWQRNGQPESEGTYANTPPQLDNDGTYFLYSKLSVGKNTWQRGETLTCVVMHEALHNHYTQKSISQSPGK
# Description: mAbs originating from the loopA3-llama Fc immunization were assayed for their affinity for hNav1.7-loopA3. Therefore, a Maxisorp plate was coated with 10 ng/well of loopA3-llamaFc chimera and incubated overnight at 4° C. The next day, the plate was blocked with PBS+1% casein for 2 hours at RT. Subsequently a concentration gradient of antibodies was applied (range 0.25 pM-66 nM) for another hour. Antibody binding to loopA3 was detected using a HRP-conjugated anti-human Fc antibody (Abcam, Ab7499) (incubation 1 hour at RT, dilution 1/5000 in PBS+0.1% casein), followed by TMB addition and OD620 nm measurement. EC50 values were determined using GraphPad Prism software. For comparison purposes a known hNav1.7-loopA3 binding monoclonal antibody, UCB_932 (US2011/0135662), was tested.
# In a next experiment, the binding affinity of the loop-specific mAbs was determined and compared to reference mAbs as described in US2011/0135662 (for loop A3: UCB_932, for loopB1-C1-D1: UCB_983, for loopC3: UCB_1066; US2011/0135662). Affinities were determined using an ELISA with a loop-coating of 10 ng/well (loopA3-llama Fc), 20 ng/well (loop-B1-C1-D1-llama Fc) or 50 ng/well (loopC3-llama Fc). The remainder of the experimental setup was identical to abovementioned binding ELISAs. Most of the mAbs show pM affinity for the respective hNav1.7 extracellular loop they are binding. […] The EC₅₀ for the reference mAbs could not be determined (nd) from the ELISA data available because the binding was too weak.
# Nt-GCGR-hFc [4] = molecular target: T6, Nt-GCGR-hFc (human, UniProt P47871 26-136); assay: ELISA with a titration of biotin-Nt-GCGR (x axis) against the mAbs, OD620
# T6 construct: domain: N-terminal domain; also called Nt-GCGR-Fc; recombinant N-terminal domain of GCGR; not shown: hFc
# T6 sequence (P47871 26-136): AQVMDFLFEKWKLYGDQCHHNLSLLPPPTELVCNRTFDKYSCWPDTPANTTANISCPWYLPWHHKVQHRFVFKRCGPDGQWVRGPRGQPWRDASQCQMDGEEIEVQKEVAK
# Nt-GCGR-hFc [5] = molecular target: T6, Nt-GCGR-hFc; assay: mAb binding ELISA on coated Nt-GCGR-hFc
# Description: Binding to GCGR- and CXCR4-lipoparticles (negative control) (A) and binding to Nt-GCGR-hFc (B). Lipoparticles were coated at 10 U/well. Nt-GCGR was coated at 1 μg/ml. mAbs were allowed to bind to the coated target at 1 μg/ml.
binder,measurement,setting,value
B1,"% inhibition of inward current following P02 voltage protocol, 10 µg/ml",[1],3.8%
same,"% inhibition of inward current following P02 voltage protocol, 25 µg/ml",[1],19.8%
same,"% inhibition of inward current following P02 voltage protocol, 100 µg/ml",[1],23.9%
same,binding result,[2],binds
same,binding result,hNav1.7-loopC3-llama Fc,binds
same,binding result,RatB1-C1-D1-llFc,binds
same,binding result,hNav1.5-B1-C1-D1-llFc,binds
same,EC50,[3],0.19 nM
B2,binding result,Nt-GCGR-hFc [4],no binding (tested: about 20 ng/ml biotin-Nt-GCGR)
B3,binding result,Nt-GCGR-hFc [4],no binding (tested: about 20 ng/ml biotin-Nt-GCGR)
B4,binding result,Nt-GCGR-hFc [5],no binding (tested: 1 µg/ml)
B5,binding result,Nt-GCGR-hFc [5],no binding (tested: 1 µg/ml)
